Values belong to the molecule of their own block, whether it stands above or below them. Ends that are not written are not given here.
Assays:
[1] = system: monoclonal antibody MV-004; test: In vitro inhibition assay (ELISA), MV-004 binding to original epitope; design: species or system BalbC mice; settings: Table 2B; OD at 10 ug peptide compared to original peptide
Procedure: Different amounts of peptides (concentrations ranging from 10 μg to 0.08 μg; serial dilutions; for MV-002: concentrations ranging from 5 μg to 0.03 μg; serial dilutions), derived from Phage Display were incubated with the monoclonal antibody that was used for the screening procedure. Peptides diminishing subsequent binding of the antibody to the original epitope coated on ELISA plates were considered as inhibiting in this assay.
Legend to Table 2B: the inhibition capacity is coded by the following code: Weak inhibition means more peptide is required to lower AB binding than with the original epitope; strong inhibition means similar peptide amounts are required for mimotope and original epitope for lowering AB binding. Mimotopes are compared to the original peptide as standard. OD at 10 ug peptide used in the assay is used to calculate the competition capacity compared to original peptide.

[2] = system: monoclonal antibody MV-004; test: In vitro binding assay (ELISA), BSA-coupled peptides, parental antibody MV-004; design: species or system BalbC mice; settings: Table 1B; peptide-BSA on plate, compared to original epitope
Procedure: Peptides derived from Phage Display as well as variants thereof were coupled to BSA and bound to ELISA plates (1 μM; as indicated in the respective figures) and subsequently incubated with the monoclonal antibody that was used for the screening procedure to analyse binding capacity of identified peptides.
Legend to Table 1B: the binding capacity is coded by the following binding code: 1:X describes the dilution factor of the parental AB.

[3] = system: injected peptide (mimotope-BSA conjugate); test: Mimotope vaccination, serum titer ELISA against injected peptide; type: in vivo, C57/B16 mice; settings: 30 μg peptide-KLH s.c. with alum, anti-mouse IgG
Procedure: (§1) Inhibiting as well as non-inhibiting peptides were coupled to KLH and injected into mice (wildtype C57/B16 mice; subcutaneous injection into the flank) together with an appropriate adjuvant (aluminium hydroxide). Animals were vaccinated 3-6 times in biweekly intervals and sera were taken biweekly as well. Titers to injected peptides, as well as to an irrelevant peptide were determined with every serum. Furthermore, titers against the recombinant human Aβ protein, and against original peptides were determined respectively. In general sera were analysed by reaction against peptides coupled to Bovine Serum Albumin (BSA) and recombinant full length proteins which were immobilised on ELISA plates. Titers were determined using anti mouse IgG specific antibodies. For detailed results see FIGS. 15, 16 and 17 respectively and FIGS. 23, 24 and 25 respectively.
(§2) Female C57/b16 mice, 5-6 mice per group, were subcutaneously immunized with 30 μg peptide coupled to KLH. Control groups were administered original epitope-KLH conjugates respectively. As adjuvant alum was used (always 1 mg per mouse). […] The in vitro ELISA assay to determine the antibody titer was performed with sera of single mice after each vaccination in a two week interval (see FIGS. 15 and 16 respectively). The wells of the ELISA plate were coated with mimotope-BSA conjugate and an irrelevant peptide-BSA conjugate (negative control). The positive control was performed by reaction of the parental antibody with the respective mimotope-BSA conjugate. The detection was performed with anti-mouse IgG. Additionally, recombinant proteins were immobilised on ELISA plates and sera reacted accordingly. FIGS. 15 to 17 show representative examples for assays used to characterise mimotopes in vivo.
as §2, with “FIGS. 25” for “FIGS. 15”, “and 26” for “and 16”, “respectively). Titers were calculated as OD max/2 in all figures shown.” for “respectively).”, “FIGS. 23, 24 and 25” for “FIGS. 15 to 17”

p4377 = test: Mimotope vaccination, serum ELISA against p4377; type: in vivo, C57/B16 mice; settings: peptide-KLH vaccines with alum; FIG. 24
Procedure: as §1
as §2, with “FIGS. 25” for “FIGS. 15”, “and 26” for “and 16”, “respectively). Titers were calculated as OD max/2 in all figures shown.” for “respectively).”, “FIGS. 23, 24 and 25” for “FIGS. 15 to 17”

irrelevant peptide p1454 = test: Mimotope vaccination, serum titer ELISA against irrelevant peptide; type: in vivo, C57/B16 mice; settings: 30 μg peptide-KLH s.c. with alum
Procedure: as §1, §2
as §2, with “FIGS. 25” for “FIGS. 15”, “and 26” for “and 16”, “respectively). Titers were calculated as OD max/2 in all figures shown.” for “respectively).”, “FIGS. 23, 24 and 25” for “FIGS. 15 to 17”

[4] = biological target: monoclonal antibody MV-001; test: ELISA on peptide-BSA; code 1 = weak binding, OD halfmax 1:<4000
[5] = biological target: monoclonal antibody MV-002; test: ELISA on peptide-BSA; code 2 = medium binding, OD halfmax 1:40000-320000
[6] = biological target: monoclonal antibody MV-002; test: ELISA on peptide-BSA; code 1 = weak binding, OD halfmax 1:<40000
[7] = biological target: monoclonal antibody MV-001; test: inhibition ELISA, competitor coated original epitope p4371; code 1 = weaker than original epitope

Binding Capacity [2]: 1 (weak binding :<24000)
Molecule: ELWHRAC [p4786]
Inhibition Capacity [1]: 1 (Weaker than original epitope (OD of 10 ug peptide below 5 times of original peptide))

Binding Capacity [2]: 1 (weak binding :<24000)
Molecule: ERWHEKC [p4790]
Inhibition Capacity [1]: 2 (strong inhibition (as original epitope; OD of 10 ug peptide below 2 times of original peptide))

Binding Capacity [2]: 1 (weak binding :<24000)
Molecule: EVWHRHC [p4789]
Inhibition Capacity [1]: 1 (Weaker than original epitope (OD of 10 ug peptide below 5 times of original peptide))

Binding Capacity [2]: 1 (weak binding :<24000)
Molecule: EVWHRGC [p4788]
Inhibition Capacity [1]: 1 (Weaker than original epitope (OD of 10 ug peptide below 5 times of original peptide))

OD halfmax 1:X (dilution factor of the parental antibody at half-maximal OD) (dilutionfactor(1:x)) [4]: < 4000
Molecule: TSTEMWHC [p4754]

OD halfmax dilution factor of the parental antibody (1:X) (dilutionfactor(1:x)) [5]: 40000 to 320000
Molecule: GELFFEKC [p4795]

OD halfmax 1:X (dilution factor of the parental antibody at half-maximal OD) (dilutionfactor(1:x)) [4]: < 4000
Molecule: TPLMFWHC [p4733]

OD halfmax dilution factor of the parental antibody (1:X) (dilutionfactor(1:x)) [6]: < 40000
Molecule: AGEIYFERC [p4806]

OD halfmax dilution factor of the parental antibody (1:X) (dilutionfactor(1:x)) [5]: 40000 to 320000
Molecule: HQKMIFC [p4794]

OD halfmax dilution factor of the parental antibody (1:X) (dilutionfactor(1:x)) [6]: < 40000
Molecule: CGEIYFER [p4807]

OD halfmax dilution factor of the parental antibody (1:X) (dilutionfactor(1:x)) [5]: 40000 to 320000
Molecule: GEIRFELC [p4796]

OD halfmax dilution factor of the parental antibody (1:X) (dilutionfactor(1:x)) [5]: 40000 to 320000
Molecule: Ac-GEIYFERC [p4804]

OD halfmax dilution factor of the parental antibody (1:X) (dilutionfactor(1:x)) [6]: < 40000
Molecule: SGEIYFERC [p4805]

Continued, molecule first:

Molecule: EVHHQKLVFC [p4377, reference compound]
immune response against injected peptide [3]: elicited immune responses | immune response against original epitope p4377 (p4377): mounted detectable immune responses | immune response against unrelated sequence (p1454) (irrelevant peptide p1454): failed to induce a relevant unspecific immune response

Molecule: EVWHRHQC [p4417]
Inhibition Capacity [1]: 1 (Weaker than original epitope (OD of 10 ug peptide below 5 times of original peptide)) | Binding Capacity [2]: 2 (medium binding :24-96000)

Molecule: ERWHEKHC [p4418]
Inhibition Capacity [1]: 2 (strong inhibition (as original epitope; OD of 10 ug peptide below 2 times of original peptide)) | Binding Capacity [2]: 3 (strong binding :>96000)

Molecule: EVWHRLQC [p4419]
Inhibition Capacity [1]: 2 (strong inhibition (as original epitope; OD of 10 ug peptide below 2 times of original peptide)) | Binding Capacity [2]: 3 (strong binding :>96000)

Molecule: ELWHRAFC [p4665]
Inhibition Capacity [1]: 2 (strong inhibition (as original epitope; OD of 10 ug peptide below 2 times of original peptide)) | Binding Capacity [2]: 2 (medium binding :24-96000)

Molecule: ELWHRYPC [p4420]
Inhibition Capacity [1]: 1 (Weaker than original epitope (OD of 10 ug peptide below 5 times of original peptide)) | Binding Capacity [2]: 2 (medium binding :24-96000)

Molecule: GSLFFWPC [p4688]
OD halfmax dilution factor of the parental antibody (1:X) (dilutionfactor(1:x)) [5]: 40000 to 320000

Molecule: SGQIWFRC [p4414]
OD halfmax dilution factor of the parental antibody (1:X) (dilutionfactor(1:x)) [6]: < 40000

Molecule: KLPLFVMC [p4691]
OD halfmax dilution factor of the parental antibody (1:X) (dilutionfactor(1:x)) [6]: < 40000

Molecule: QPNLFYHC [p4713]
OD halfmax 1:X (dilution factor of the parental antibody at half-maximal OD) (dilutionfactor(1:x)) [4]: < 4000

Molecule: HEPLFSHC [p4719]
OD halfmax 1:X (dilution factor of the parental antibody at half-maximal OD) (dilutionfactor(1:x)) [4]: < 4000

Molecule: NWFPHPC [p4392]
OD at 10 ug peptide relative to OD of original peptide (inhibition ELISA) [7]: 2 to 3 fold | OD halfmax 1:X (dilution factor of the parental antibody at half-maximal OD) (dilutionfactor(1:x)) [4]: < 4000

Molecule: EDWFFWHC [p4709]
OD halfmax 1:X (dilution factor of the parental antibody at half-maximal OD) (dilutionfactor(1:x)) [4]: < 4000

Molecule: GTIFFRDC [p4692]
OD halfmax dilution factor of the parental antibody (1:X) (dilutionfactor(1:x)) [6]: < 40000

Molecule: GTLIFHHC [p4695]
OD halfmax dilution factor of the parental antibody (1:X) (dilutionfactor(1:x)) [5]: 40000 to 320000

Molecule: QLPLFVLC [p4700]
OD halfmax dilution factor of the parental antibody (1:X) (dilutionfactor(1:x)) [6]: < 40000

Molecule: SGEIHFNC [p4415]
OD halfmax dilution factor of the parental antibody (1:X) (dilutionfactor(1:x)) [6]: < 40000

Molecule: QELKRYYC [p4724]
OD halfmax 1:X (dilution factor of the parental antibody at half-maximal OD) (dilutionfactor(1:x)) [4]: < 4000

Molecule: GQIWFISC [p4666]
OD halfmax dilution factor of the parental antibody (1:X) (dilutionfactor(1:x)) [6]: < 40000

Molecule: GQIIFQSC [p4668]
OD halfmax dilution factor of the parental antibody (1:X) (dilutionfactor(1:x)) [5]: 40000 to 320000

Molecule: AIPLFVMC [p4682]
OD halfmax dilution factor of the parental antibody (1:X) (dilutionfactor(1:x)) [6]: < 40000

Source: US20130287807A1, “COMPOUNDS FOR TREATING SYMPTOMS ASSOCIATED WITH PARKINSON'S DISEASE” (priority 2008, published 2013)
